Our source for the stoichiometry N values is publication PMC3800664.

Test [1] deals with GST-TKJMΔ (intracellular domain of the EGFR lacking the first 13 amino acids of the juxtamembrane region, fused to glutathione S-transferase). The test can be described thus: cross-linking; total protein extracts of E. coli treated with BS3 or glutaraldehyde, western blot with anti-GST antibody; control without cross-linking agent. (In general: Immunoblotting shows a protein as a band on a membrane.)

Test [2] has as its target glutathione S-transferase (GST). The test is described as above.

Sequence of glutathione S-transferase (GST) (P08515 2-218): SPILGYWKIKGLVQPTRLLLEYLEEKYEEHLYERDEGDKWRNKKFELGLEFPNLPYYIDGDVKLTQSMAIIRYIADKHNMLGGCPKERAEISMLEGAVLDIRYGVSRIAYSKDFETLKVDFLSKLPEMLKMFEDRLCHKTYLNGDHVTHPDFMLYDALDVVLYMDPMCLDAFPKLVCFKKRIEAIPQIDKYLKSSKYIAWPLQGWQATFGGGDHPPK

For “GST-TKJMΔ (intracellular domain of the EGFR lacking the first 13 amino acids of the juxtamembrane region, fused to glutathione S-transferase) (domain or fragment)”, in test [1], the stoichiometry N (in general, the number of molecules, sites or subunits per partner or assembly) worked out at 2.
In test [2], “glutathione S-transferase (GST) (natural protein)” registered a stoichiometry N of 2.
